Data: patent publication US20220194987A1
Positions of bridges follow the written chain, without caps; N, C: chain ends. No end group written: not given here.

Legend:
[1] = target: human BKα channel ZERO isoform (human) (UniProt Q12791); experiment: cell-based or functional assay
[2] = target: human BKα channel ZERO isoform (human) (UniProt Q12791); experiment: phagemid display panning, positive selection on HEK293 cells expressing human BKα ZERO; enrichment over the theoretical frequency in the library

CPPGRGAVC (disulfide 1-9) [LS4]
probability of opening, combination of pskan1 and pskan4, 10 microM, outside-out patches [1]: 1.6 fold

CARGVYRVC (disulfide 1-9) [LS1]
probability of opening, combination of pskan1 and pskan4, 10 microM, outside-out patches [1]: 1.6 fold

CRRGLVQVC (disulfide 1-9; also: TFA salt) [LS3]
suppression of channel openings (patch clamp, HEK293 cells) (fraction of openings suppressed) [1]: 0.67 | fold enrichment of its motifs in the phagemid panning [2]: > 1000 fold
